Holding throughout (type): cell-based, human
For assay [1], the system named is MCF-7 cells. The assay can be described thus: Cell morphology after exposure to growth factor. As to conditions: MCF-7 / MCF-7M, 6-14 days in growth factor. From the text: FIG. 4 is a photographic representation showing morphology of growth factor stimulated MCF-7M cells. Following 1 week in suspension culture containing the various growth factors, MCF-7M cells were cytospun onto slides and subsequently stained with Giemsa.
FIG. 11 is a photographic representation showing cell morphology after exposure to OSM. MCF-7 cells from control cultures and appears of cells after 7 days in OSM. A) Control cells, 10× magnification. B) OSM treated cells, 10× magnification. C) OSM treated cells, 40× magnification. D) OSM treated cells, 100× magnification.
FIG. 15 is a photographic representation showing cell morphology after exposure to OSM. MCF-7 cells from control cultures (Panel A) and appearance of cells after culture for 14 days in OSM (10 ng/ml) (Panel B). MDA-MB-231 cells from control cultures (Panel C) and appearance of cells after culture for 7 days in OSM (Panel D).

Assay [2] concerns MCF-7 cells. As to the kind of experiment: Clonogenic assay in agar after monolayer culture. As to conditions: MCF-7, 7 days monolayer then 14 days agar. On the procedure: FIG. 3 is a graphical representation showing clonogenicity of MCF-7M cells. Following suspension culture MCF-7M cell viability was measured by agar culture. Cells were plated in agar with the indicated concentrations of each of the growth factors. After 14 days culture colonies of cells were counted. Cell numbers reported here are the results of 3 experiments, each performed in triplicate, and are expressed according to the number of cells that went into suspension culture.
FIG. 17 is a graphical representation showing clonogenicity of MCF-7 cells after 1 week in suspension culture. Following suspension culture clonogenicity of MCF-7 cells was assayed in agar culture. Cells were plated in agar with the indicated growth factor and maintained at 37° C0 in a humidified incubator with 5% CO2 in air. After 14 days colonies of cells were counted. Results are from 9 experiments using IL-6, LIF and OSM, and 5 experiments using CNTF and IL-11. Each experiment was performed in triplicate, and colony numbers are expressed as a percentage of untreated controls.
Clonogenic potential of cells following monolayer culture was assessed in a semi-solid culture medium. Cells were cultured in triplicate in 35 mm Petri dishes containing 1 ml Iscove's modified Dulbecco's medium (IMDM) supplemented with 25% (v/v) (v/v) BCS, 0.3% (w/v) agar with final concentration of growth factor as outlined above, and with 200 cells per ml for control cultures Cultures were maintained at 37° C. in a humidified incubator with 5% (v/v) CO2 in air. After 14 days, colonies were enumerated using a dissecting microscope. A colony was defined as a clone of greater than 40 cells. All cultures were performed in triplicate.

Assay [3] has as its system MCF-7 cells. The assay can be described thus: Proliferation of MCF-7 cells in monolayer (liquid) culture, viable cell count. As to conditions: for mean inhibition of cell proliferation: MCF-7, 7 days exposure, LIF 1000 U/ml, IL-6 100 ng/ml, OSM 10 ng/ml, IL-11 100 ng/ml, vs untreated control; for effect on cell proliferation (in words): MCF-7 / MCF-7M, up to 1 week culture. On the procedure: FIGS. 2A, B and C are graphical representations of MCF-7M cells in liquid culture. 10^4 MCF-7M cells were cultured in 500 μl RPMI/10% bovine calf serum (BCS) (v/v) containing the indicated concentration of each of the growth factors (OSM or LIF). After 7 days culture viable cells were counted using a hemacytometer. Cell numbers reported here are the result of one experiment, each performed in triplicate.
FIG. 7 is a graphical representation showing inhibition of proliferation of MCF-7 cells by Oncostatin M (OSM). 10^4 MCF-7 cells were cultured in 500 μl RPMI/10% (v/v) BCS with the indicated concentrations of OSM. At 2, 4 and 6 days, viable cells were counted using a hemacytometer. Results are from 3 experiments, each performed in triplicate.
FIG. 8 is a graphical representation showing that MCF-7 cells are inhibited in a dose-dependent fashion by Oncostatin M (OSM). 10^4 MCF-7 cells were cultured in 500 μl RPMI/10% (v/v) BCS with the indicated concentrations of OSM. After 7 days viable cells were counted, and cell number expressed as a percentage of the corresponding untreated control value.
FIG. 16 is a graphical representation showing inhibition of MCF-7 cells after 7 days in suspension culture. 10^4MCF-7 cells were cultured in 500 μl RPMI/10% (v/v) BCS with the indicated growth factor. After 7 days viable cells were counted using a hemacytometer. Results are from 9 experiments, each performed in triplicate.
(§1) Proliferation of the cell lines was measured in monolayer culture in 24 well Costar cluster plates. Cells were plated at an initial density of 10 000 cells/ml and cultured in 500 μl RPMI-1640 supplemented with 10% (v/v) (v/v) BCS and with each growth factor as indicated (LIF, 1000 U/ml; IL-6, 100 ng/ml; OSM, 10 ng/ml; CNTF, 10 ng/ml; IL-11, 100 ng/ml). These concentrations are maximally active in other systems (Nandurkar et al., 1996; Hilton et al., 1994; Zhang et al., 1994; Tanigawa et al., 1995). After 7 or 10 days at 37° C. in a fully humidified atmosphere containing 10% (v/v) CO2 in air, cells were trypsinised and counted using a haemocytometer and an inverted microscope. Cell viability was assessed using eosin exclusion. Results were expressed as a percentage of the corresponding untreated control value for that experiment.

In assay [4] the test system is four breast cancer cell lines. The assay can be described thus: Proliferation of four breast cancer cell lines in monolayer culture (summary). On the procedure: as §1
Experiments were performed to determine whether these morphological changes were associated with alterations in cell growth. The proliferation of four breast cancer cell lines was examined in monolayer cultures containing either IL-6, LIF, OSM, CNTF or IL-11.

Another assay relates to MDA-MB-231 cells. The assay can be described thus: Proliferation of MDA-MB-231 cells in culture, viable cell count. As to conditions: MDA-MB-231. As to the method:
FIG. 19 is a graphical representation showing MDA-MB-231 cells after 7 days in suspension culture. 10^4MDA-MB-231 cells were cultured in 500 μl RPMI/10% (v/v) BCS with the indicated growth factor. After 7 days viable cells were counted using a hemacytometer. Results are from 8 experiments, each performed in triplicate.
as §1

Another assay has as its system BT-549 cells. The assay can be described thus: Proliferation of BT-549 cells in culture, viable cell count. As to the method: FIGS 5A and B are graphical representations of BT-549 cells in liquid culture. 10^4 BT-549 cells were cultured in 500 μl RPMI/10% (v/v) BCS containing the relevant concentration of each of the growth factors (OSM, IL-11 and IL-6). After 10 days, culture viable cells were counted using a hemacytometer. Cell numbers reported here in the two graphs are the results of 1 experiment performed in triplicate.
FIG. 18 is a graphical representation showing BT-549 cells after 10 days in suspension culture. 10^4BT-549 cells were cultured in 500 μl RPMI/10% (v/v) BCS with the indicated growth factor. After 10 days culture viable cells were counted using a hemacytometer. Results are from 6 experiments, each performed in triplicate.
as §1

Take interleukin-6 [IL-6]: in the assay with MCF-7 cells [1], the “cell morphology (in words)” value is recorded as “morphologically similar to the control”. The “effect on colony formation / clonogenic potential (in words)” value in the assay on MCF-7 cells [2] was “significant reduction of colony formation”. In the assay with MCF-7 cells [3], the “mean inhibition of cell proliferation” value worked out at 23% and the “effect on cell proliferation (in words)” value was “did not appear to be able to induce inhibition”. The “cell lines with significant inhibition of cellular proliferation” value in assay [4] is reported as “¼”.

B1: ciliary neurotrophic factor (protein, UniProt P26441 1-200, looked up)
Ciliary neurotrophic factor: MAFTEHSPLTPHRRDLCSRSIWLARKIRSDLTALTESYVKHQGLNKNINLDSADGMPVASTDQWSELTEAERLQENLQAYRTFHVLLARLLEDQQVHFTPTEGDFHQAIHTLLLQVAAFAYQIEELMILLEYKIPRNEADGMPINVGDGGLFEKKLWGLKVLQELSQWTVRSIHDLRFISSHQTGIPARGSHYIANNKKM
notes: human CNTF purchased from AMRAD Operations Ltd; cytokine
B1: the “effect on colony formation / clonogenic potential (in words)” value with MCF-7 cells [2] is “no effect on clonogenic potential”. Moreover, the “effect on cell proliferation (in words)” value in the assay on MCF-7 cells [3] is recorded as “no effect on cellular proliferation”. The “effect on cellular proliferation (in words)” value in the assay on MDA-MB-231 cells is reported as “did not respond”.

B2: interleukin-11 (protein, UniProt P20809 22-199, looked up)
Interleukin-11: PGPPPGPPRVSPDPRAELDSTVLLTRSLLADTRQLAAQLRDKFPADGDHNLDSLPTLAMSAGALGALQLPGVLTRLRADLLSYLRHVQWLRRAGGSSLKTLEPELGTLQARLDRLLRRLQLLMSRLALPQPPPDPPAPPLAPPSSAWGGIRAAHAILGGLHLTLDWAVRGLLLLKTRL
notes: human IL-11 purchased from Pepro Tech; cytokine
Turning to B2, the “effect on colony formation / clonogenic potential (in words)” value with MCF-7 cells [2] is recorded as “did not have detectable effect on subsequent clonogenicity”. Besides, in the assay with MCF-7 cells [3], the “mean inhibition of cell proliferation” value is 27%. Also, in the assay with BT-549 cells (BT-549), the “effect on cell proliferation (in words)” value is reported as “inhibited”. In addition, the mean growth inhibition with BT-549 cells (BT-549, 7 days) was determined as 30%; in the assay on BT-549 cells (BT-549, 10 days) it was 56%. For the same molecule, the “growth inhibition, up to (maximum observed)” value in the assay on BT-549 cells (BT-549, 10 days) is listed as “up to 63%”. The “cell lines with significant inhibition of cellular proliferation” value in assay [4] is 2/4.

The record behind these values is patent US20020106347A1, “Cytokines and their use in treatment and/or prophylaxis of breast cancer” (priority 1995, published 2002).
